According to article PMC7570090, “Label-Free Monitoring of Histone Acetylation Using Aptamer-Functionalized Field-Effect Transistor and Quartz Crystal Microbalance Sensors”:

Key:
histone H4 = histone H4 (human, UniProt P62805 1-103); assay: FET and QCM; 140 mM KCl; 44-2650 nM H4; FET: 1 mM phosphate, 140 mM KCl, pH 7.4, 25 C; aptamer/sulfobetaine SAM on gold annealed at 100 C and slowly cooled; QCM 30 MHz, 25 C (buffer not separately stated); details: protein: commercial; G-quadruplex with K+
histone H3.1 = histone H3.1 (human, UniProt P68431 1-136); assay: FET and QCM; 140 mM KCl; 33-1950 nM H3; FET: 1 mM phosphate, 140 mM KCl, pH 7.4, 25 C; aptamer/sulfobetaine SAM on gold annealed at 100 C and slowly cooled; QCM 30 MHz, 25 C (buffer not separately sta)

B1: anti-histone H4 aptamer (structured_DNA)
DNA: TTTTGGTGGGGTTCCCGGGAGGGCGGCTACGGGTTCCGTAATCAGATTTGTGT
modifications: 5' 6-mercaptohexyl linker
Histone H4
  binding result: binds

B2: anti-histone H3 aptamer (structured_DNA)
DNA: TTTGAGTGTGGTTCCCGGGAGGGCGCCTACGGGTCCCGTATTCGGATTTGTGC
modifications: 5' 6-mercaptohexyl linker
Histone H3.1
  binding result: binds
